Reference: publication PMC9846428, “EEPD1 promotes repair of oxidatively-stressed replication forks”

T1: EEPD1 (Homo sapiens) (UniProt Q7L9B9)
T1 sequence: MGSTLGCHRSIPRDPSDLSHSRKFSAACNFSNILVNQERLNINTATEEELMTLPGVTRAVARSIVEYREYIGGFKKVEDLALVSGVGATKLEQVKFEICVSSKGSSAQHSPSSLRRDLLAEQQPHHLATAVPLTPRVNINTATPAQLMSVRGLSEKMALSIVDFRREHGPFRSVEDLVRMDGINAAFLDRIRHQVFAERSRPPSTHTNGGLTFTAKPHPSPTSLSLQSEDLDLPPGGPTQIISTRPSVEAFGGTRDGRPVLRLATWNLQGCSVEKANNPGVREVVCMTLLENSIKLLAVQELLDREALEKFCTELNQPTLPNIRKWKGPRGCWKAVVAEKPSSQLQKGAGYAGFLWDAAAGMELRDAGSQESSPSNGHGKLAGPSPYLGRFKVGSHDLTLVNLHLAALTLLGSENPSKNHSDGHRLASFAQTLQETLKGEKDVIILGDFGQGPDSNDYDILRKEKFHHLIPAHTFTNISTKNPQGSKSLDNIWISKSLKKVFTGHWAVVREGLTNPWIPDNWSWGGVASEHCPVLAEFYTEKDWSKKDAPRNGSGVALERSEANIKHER

T2: EEPD1 (Homo sapiens, UniProt Q7L9B9 1-569)
T2 sequence: T1 sequence

B1: fork DNA without abasic site (Oligos D, F, G, H) (structured_DNA)
DNA 1: CATGCAGCTGATGCGTACAACACACTGTG
DNA 2: TTTTCCCCCCCCCCCGCATCAGCTGCATG
DNA 3: CACAGTGTGTTGTA
DNA 4: GGGGGGGGGGAAAA

Assays:
APE1 (Homo sapiens) = APE1 (Homo sapiens) (UniProt P27695); test: fluorescence polarization; conditions: 5 nM DNA, no Mg2+ listed, THF at nt 15 of strand 1 (N), EMSA: 20 mM HEPES pH 7.9, 1 mM DTT, 30 mM NaCl, 0.03% NP-40, 10% glycerol, 1 ug poly(dI-dC), 20 min room temperature, FP: 10 mM HEPES pH 7.5, 50 mM KCl
Sequence of APE1 (Homo sapiens) (P27695 whole entry): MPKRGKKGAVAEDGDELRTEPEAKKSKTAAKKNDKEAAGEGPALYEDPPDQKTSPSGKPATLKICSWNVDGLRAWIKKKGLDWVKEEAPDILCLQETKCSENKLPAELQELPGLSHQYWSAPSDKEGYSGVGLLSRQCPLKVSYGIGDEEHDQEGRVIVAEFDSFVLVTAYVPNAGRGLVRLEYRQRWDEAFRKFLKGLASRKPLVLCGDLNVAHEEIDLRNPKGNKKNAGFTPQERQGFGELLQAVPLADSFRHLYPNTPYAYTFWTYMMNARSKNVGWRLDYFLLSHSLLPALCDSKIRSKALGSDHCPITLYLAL

EEPD1 (Homo sapiens) = biological target: T1, EEPD1 (Homo sapiens); test: fluorescence polarization; conditions: 5 nM DNA, no Mg2+ listed, THF at nt 15 of strand 1 (N), EMSA: 20 mM HEPES pH 7.9, 1 mM DTT, 30 mM NaCl, 0.03% NP-40, 10% glycerol, 1 ug poly(dI-dC), 20 min room temperature, FP: 10 mM HEPES pH 7.5, 50 mM KCl
EEPD1 = biological target: T2, EEPD1; test: EMSA; 1 ug poly(dI-dC); less than THF fork; EMSA: 20 mM HEPES pH 7.9, 1 mM DTT, 30 mM NaCl, 0.03% NP-40, 10% glycerol, 1 ug poly(dI-dC), 20 min room temperature; FP: 10 mM HEPES pH 7.5, 50 mM KCl, 5 nM DNA, 0-1000 nM protein; conditions: protein: recombinant; tags: FLAG; label: 32P 5'-end; fork 1:2 1:3 2:4

Molecule	Kd (APE1 (Homo sapiens)) [nM]	Kd (EEPD1 (Homo sapiens)) [nM]	binding result (EEPD1)
CATGCAGCTGATGCNTACAACACACTGTG / TTTTCCCCCCCCCCCGCATCAGCTGCATG / CACAGTGTGTTGTA / GGGGGGGGGGAAAA	21	81	
B1			binds
